Source: patent US20220204580A1 (AstraZeneca / MedImmune, published 2022)
Numbered stars: 1 amine (or outer) side, 2 acyl side, 3 side chain; on linkers, the order of the positions; unused ones are H or OH. Bridge positions count the residues as written; N and C are the ends. Square brackets hold non-standard residues; d marks the D form. Side chains are listed from the residue outwards. Ends that are not written are not given here. * marks the point of attachment. C18 diacid = O=C(O)CCCCCCCCCCCCCCCCC(=O)*; γGlu = O=C(O)[C@H](CCC(=O)[*:2])N[*:1]; αMeF = C[C@](N)(Cc1ccccc1)C(=O)O; Aib = CC(C)(N)C(=O)O

T1: human amylin receptor (calcitonin receptor co-expressed with receptor activity modifying protein, RAMP3) (human, UniProt P30988 25-474; O60896 24-148)
T1 sequence (looked up) 1: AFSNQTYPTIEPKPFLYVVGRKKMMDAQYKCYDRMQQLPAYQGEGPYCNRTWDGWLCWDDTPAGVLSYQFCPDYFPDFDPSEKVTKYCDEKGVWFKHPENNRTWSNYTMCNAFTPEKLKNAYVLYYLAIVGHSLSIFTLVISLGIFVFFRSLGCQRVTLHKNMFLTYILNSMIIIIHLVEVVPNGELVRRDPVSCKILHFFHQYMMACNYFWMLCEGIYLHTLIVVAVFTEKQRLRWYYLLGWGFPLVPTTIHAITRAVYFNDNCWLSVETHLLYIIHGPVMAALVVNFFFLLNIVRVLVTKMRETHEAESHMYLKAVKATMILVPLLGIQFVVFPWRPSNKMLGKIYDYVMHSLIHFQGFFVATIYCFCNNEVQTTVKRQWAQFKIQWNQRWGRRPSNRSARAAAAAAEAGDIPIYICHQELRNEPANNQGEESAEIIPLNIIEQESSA
T1 sequence (looked up) 2: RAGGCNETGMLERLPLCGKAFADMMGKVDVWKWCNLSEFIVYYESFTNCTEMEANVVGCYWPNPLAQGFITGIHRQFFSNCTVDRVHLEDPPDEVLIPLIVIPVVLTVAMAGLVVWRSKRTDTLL

T2: human calcitonin receptor (human, UniProt P30988 25-474)
T2 sequence (looked up): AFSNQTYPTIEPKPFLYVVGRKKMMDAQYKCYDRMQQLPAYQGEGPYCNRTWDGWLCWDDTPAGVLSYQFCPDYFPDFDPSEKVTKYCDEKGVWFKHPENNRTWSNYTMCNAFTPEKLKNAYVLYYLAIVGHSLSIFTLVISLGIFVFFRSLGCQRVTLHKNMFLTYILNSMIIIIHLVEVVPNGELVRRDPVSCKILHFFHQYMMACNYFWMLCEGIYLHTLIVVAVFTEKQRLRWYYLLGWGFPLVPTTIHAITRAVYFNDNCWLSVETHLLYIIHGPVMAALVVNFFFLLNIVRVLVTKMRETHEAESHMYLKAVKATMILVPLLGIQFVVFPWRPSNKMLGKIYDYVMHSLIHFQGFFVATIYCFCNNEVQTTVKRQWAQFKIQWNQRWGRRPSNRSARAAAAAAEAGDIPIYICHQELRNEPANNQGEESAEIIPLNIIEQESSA

T3: rat amylin receptor (calcitonin receptor co-expressed with receptor activity modifying protein, RAMP3) (rat, UniProt P32214 25-516; Q9JJ73 23-147)
T3 sequence (looked up) 1: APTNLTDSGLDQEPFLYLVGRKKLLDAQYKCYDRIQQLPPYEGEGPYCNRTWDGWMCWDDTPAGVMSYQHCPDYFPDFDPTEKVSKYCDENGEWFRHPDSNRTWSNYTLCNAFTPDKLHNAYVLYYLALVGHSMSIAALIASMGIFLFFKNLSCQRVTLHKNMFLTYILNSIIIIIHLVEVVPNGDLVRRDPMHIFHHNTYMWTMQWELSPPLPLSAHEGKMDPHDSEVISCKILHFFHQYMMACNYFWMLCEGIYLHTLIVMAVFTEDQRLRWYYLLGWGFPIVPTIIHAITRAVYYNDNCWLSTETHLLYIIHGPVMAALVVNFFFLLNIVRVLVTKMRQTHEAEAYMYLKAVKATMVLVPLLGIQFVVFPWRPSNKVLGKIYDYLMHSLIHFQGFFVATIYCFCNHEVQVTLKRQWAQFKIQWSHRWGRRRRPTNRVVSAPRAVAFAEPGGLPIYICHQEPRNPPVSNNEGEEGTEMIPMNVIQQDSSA
T3 sequence (looked up) 2: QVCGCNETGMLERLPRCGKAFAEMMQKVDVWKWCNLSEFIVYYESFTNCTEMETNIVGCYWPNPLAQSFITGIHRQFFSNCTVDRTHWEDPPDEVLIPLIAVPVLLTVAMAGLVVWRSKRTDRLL

T4: rat calcitonin receptor (rat, UniProt P32214 25-516)
T4 sequence (looked up): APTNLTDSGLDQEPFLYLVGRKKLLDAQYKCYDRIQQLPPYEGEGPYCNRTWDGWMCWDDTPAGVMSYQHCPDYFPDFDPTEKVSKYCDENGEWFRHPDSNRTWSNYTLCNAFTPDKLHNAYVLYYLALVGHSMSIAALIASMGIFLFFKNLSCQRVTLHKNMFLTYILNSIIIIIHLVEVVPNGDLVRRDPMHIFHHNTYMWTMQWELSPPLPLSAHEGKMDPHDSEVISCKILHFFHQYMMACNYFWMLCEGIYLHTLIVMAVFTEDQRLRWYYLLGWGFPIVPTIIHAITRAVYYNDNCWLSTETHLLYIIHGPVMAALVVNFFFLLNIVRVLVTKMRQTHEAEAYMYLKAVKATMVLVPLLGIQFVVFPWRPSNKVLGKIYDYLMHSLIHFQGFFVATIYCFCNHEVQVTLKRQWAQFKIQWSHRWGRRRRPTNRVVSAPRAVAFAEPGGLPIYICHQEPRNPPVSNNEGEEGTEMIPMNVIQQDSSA


What was measured:
Test in all cases: cell-based or functional assay
[1] = molecular target: T1, human amylin receptor (calcitonin …)
[2] = molecular target: T2, human calcitonin receptor
[3] = molecular target: T3, rat amylin receptor (calcitonin …)
[4] = molecular target: T4, rat calcitonin receptor

Binder | EC50 (cAMP production) [1] | Ratio (EC50 hCTR / EC50 hAMYR3) [1] | EC50 (cAMP production) [2] | EC50 (cAMP production) [3] | EC50 (cAMP production) [4]
K([γGlu-C18 diacid])KCNTATCATQRLANFL[Aib]HSSNNFGPILPPTNVGSNTY-NH2 (disulfide 3-8; N-terminus assumed; SMILES CC[C@H](C)[C@H](NC(=O)[C@@H]1CCCN1C(=O)CNC(=O)[C@H](Cc1ccccc1)NC(=O)[C@H](CC(N)=O)NC(=O)[C@H](CC(N)=O)NC(=O)[C@H](CO)NC(=O)[C@H](CO)NC(=O)[C@H](Cc1c[nH]cn1)NC(=O)C(C)(C)NC(=O)[C@H](CC(C)C)NC(=O)[C@H](Cc1ccccc1)NC(=O)[C@H](CC(N)=O)NC(=O)[C@H](C)NC(=O)[C@H](CC(C)C)NC(=O)[C@H](CCCNC(=N)N)NC(=O)[C@H](CCC(N)=O)NC(=O)[C@@H](NC(=O)[C@H](C)NC(=O)[C@@H]1CSSC[C@H](NC(=O)[C@H](CCCCN)NC(=O)[C@@H](N)CCCCNC(=O)CC[C@H](NC(=O)CCCCCCCCCCCCCCCCC(=O)O)C(=O)O)C(=O)N[C@@H](CC(N)=O)C(=O)N[C@@H]([C@@H](C)O)C(=O)N[C@@H](C)C(=O)N[C@@H]([C@@H](C)O)C(=O)N1)[C@@H](C)O)C(=O)N[C@@H](CC(C)C)C(=O)N1CCC[C@H]1C(=O)N1CCC[C@H]1C(=O)N[C@H](C(=O)N[C@@H](CC(N)=O)C(=O)N[C@H](C(=O)NCC(=O)N[C@@H](CO)C(=O)N[C@@H](CC(N)=O)C(=O)N[C@H](C(=O)N[C@@H](Cc1ccc(O)cc1)C(N)=O)[C@@H](C)O)C(C)C)[C@@H](C)O) [Peptide 129 (SEQ ID NO: 129)] | 0.553 nM | 10.4 | 5.75 nM | 0.0112 nM | 2.87 nM
{C18 diacid}-[γGlu]KCNTATCATQRLANFLVHSSNNFGPILPPTNVGSNTY-NH2 (disulfide 3-8) [Peptide 3 (SEQ ID NO: 3)] | 0.246 nM | 5 | 1.35 nM | 0.0029 nM | 0.186 nM
K([γGlu-C18 diacid])KCNTATCATQRLANFLRHSSNN[αMeF]GPILPPTEVGSNTY-NH2 (disulfide 3-8; N-terminus assumed; SMILES CC[C@H](C)[C@H](NC(=O)[C@@H]1CCCN1C(=O)CNC(=O)[C@](C)(Cc1ccccc1)NC(=O)[C@H](CC(N)=O)NC(=O)[C@H](CC(N)=O)NC(=O)[C@H](CO)NC(=O)[C@H](CO)NC(=O)[C@H](Cc1c[nH]cn1)NC(=O)[C@H](CCCNC(=N)N)NC(=O)[C@H](CC(C)C)NC(=O)[C@H](Cc1ccccc1)NC(=O)[C@H](CC(N)=O)NC(=O)[C@H](C)NC(=O)[C@H](CC(C)C)NC(=O)[C@H](CCCNC(=N)N)NC(=O)[C@H](CCC(N)=O)NC(=O)[C@@H](NC(=O)[C@H](C)NC(=O)[C@@H]1CSSC[C@H](NC(=O)[C@H](CCCCN)NC(=O)[C@@H](N)CCCCNC(=O)CC[C@H](NC(=O)CCCCCCCCCCCCCCCCC(=O)O)C(=O)O)C(=O)N[C@@H](CC(N)=O)C(=O)N[C@@H]([C@@H](C)O)C(=O)N[C@@H](C)C(=O)N[C@@H]([C@@H](C)O)C(=O)N1)[C@@H](C)O)C(=O)N[C@@H](CC(C)C)C(=O)N1CCC[C@H]1C(=O)N1CCC[C@H]1C(=O)N[C@H](C(=O)N[C@@H](CCC(=O)O)C(=O)N[C@H](C(=O)NCC(=O)N[C@@H](CO)C(=O)N[C@@H](CC(N)=O)C(=O)N[C@H](C(=O)N[C@@H](Cc1ccc(O)cc1)C(N)=O)[C@@H](C)O)C(C)C)[C@@H](C)O) [Peptide 15 (SEQ ID NO: 15)] | 0.522 nM | 10 | 5.46 nM | 0.0103 nM | 1.82 nM
K([γGlu-γGlu-C18 diacid])CNTATCATQRLANFLRHSSNN[αMeF]GPILPPTEVGSNTY-NH2 (disulfide 2-7) [Peptide 18 (SEQ ID NO: 18)] | 0.319 nM | 15 | 4.69 nM | 0.0165 nM | 3.09 nM

Next, values leading:

EC50 (cAMP production) [1] | Ratio (EC50 hCTR / EC50 hAMYR3) [1] | EC50 (cAMP production) [2] | EC50 (cAMP production) [3] | EC50 (cAMP production) [4] | Binder
0.656 nM | 9.2 | 6.05 nM | 0.0195 nM | 1.22 nM | K([γGlu-C18 diacid])KCNTATCATQRLANFL[Aib]HSSNNFGPILPPTEVGSNTY-NH2 (disulfide 3-8; N-terminus assumed; SMILES CC[C@H](C)[C@H](NC(=O)[C@@H]1CCCN1C(=O)CNC(=O)[C@H](Cc1ccccc1)NC(=O)[C@H](CC(N)=O)NC(=O)[C@H](CC(N)=O)NC(=O)[C@H](CO)NC(=O)[C@H](CO)NC(=O)[C@H](Cc1c[nH]cn1)NC(=O)C(C)(C)NC(=O)[C@H](CC(C)C)NC(=O)[C@H](Cc1ccccc1)NC(=O)[C@H](CC(N)=O)NC(=O)[C@H](C)NC(=O)[C@H](CC(C)C)NC(=O)[C@H](CCCNC(=N)N)NC(=O)[C@H](CCC(N)=O)NC(=O)[C@@H](NC(=O)[C@H](C)NC(=O)[C@@H]1CSSC[C@H](NC(=O)[C@H](CCCCN)NC(=O)[C@@H](N)CCCCNC(=O)CC[C@H](NC(=O)CCCCCCCCCCCCCCCCC(=O)O)C(=O)O)C(=O)N[C@@H](CC(N)=O)C(=O)N[C@@H]([C@@H](C)O)C(=O)N[C@@H](C)C(=O)N[C@@H]([C@@H](C)O)C(=O)N1)[C@@H](C)O)C(=O)N[C@@H](CC(C)C)C(=O)N1CCC[C@H]1C(=O)N1CCC[C@H]1C(=O)N[C@H](C(=O)N[C@@H](CCC(=O)O)C(=O)N[C@H](C(=O)NCC(=O)N[C@@H](CO)C(=O)N[C@@H](CC(N)=O)C(=O)N[C@H](C(=O)N[C@@H](Cc1ccc(O)cc1)C(N)=O)[C@@H](C)O)C(C)C)[C@@H](C)O) [Peptide 140 (SEQ ID NO: 140)]
0.13 nM | 9.2 | 1.2 nM | 0.0056 nM | 0.522 nM | K([γGlu-C18 diacid])CNTATCATQRLANFL[Aib]HSSNNFGPILPPTNVGSNTY-NH2 (disulfide 2-7; N-terminus assumed; SMILES CC[C@H](C)[C@H](NC(=O)[C@@H]1CCCN1C(=O)CNC(=O)[C@H](Cc1ccccc1)NC(=O)[C@H](CC(N)=O)NC(=O)[C@H](CC(N)=O)NC(=O)[C@H](CO)NC(=O)[C@H](CO)NC(=O)[C@H](Cc1c[nH]cn1)NC(=O)C(C)(C)NC(=O)[C@H](CC(C)C)NC(=O)[C@H](Cc1ccccc1)NC(=O)[C@H](CC(N)=O)NC(=O)[C@H](C)NC(=O)[C@H](CC(C)C)NC(=O)[C@H](CCCNC(=N)N)NC(=O)[C@H](CCC(N)=O)NC(=O)[C@@H](NC(=O)[C@H](C)NC(=O)[C@@H]1CSSC[C@H](NC(=O)[C@@H](N)CCCCNC(=O)CC[C@H](NC(=O)CCCCCCCCCCCCCCCCC(=O)O)C(=O)O)C(=O)N[C@@H](CC(N)=O)C(=O)N[C@@H]([C@@H](C)O)C(=O)N[C@@H](C)C(=O)N[C@@H]([C@@H](C)O)C(=O)N1)[C@@H](C)O)C(=O)N[C@@H](CC(C)C)C(=O)N1CCC[C@H]1C(=O)N1CCC[C@H]1C(=O)N[C@H](C(=O)N[C@@H](CC(N)=O)C(=O)N[C@H](C(=O)NCC(=O)N[C@@H](CO)C(=O)N[C@@H](CC(N)=O)C(=O)N[C@H](C(=O)N[C@@H](Cc1ccc(O)cc1)C(N)=O)[C@@H](C)O)C(C)C)[C@@H](C)O) [Peptide 149 (SEQ ID NO: 149)]
